# Experimental data reported in the nanobody polyreactivity screen of Harvey et al. (2022).
# Assay: yeast display, Sf9 membrane polyspecificity reagent, FACS + sequencing; frameworks hold sequencing errors
# In short: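 Nanobodies from a synthetic yeast display library (Saccharomyces cerevisiae BJ5465), induced 36–48 hours with galactose, were stained 1 hour at 4 °C with 10% biotinylated, detergent-solubilized Sf9 membrane reagent, enriched on streptavidin microbeads, then FACS-sorted. Anti-HA (expression) and streptavidin (reagent binding) fluorescence set low and high (top ~1%) gates. Polyreactivity labels come from the gate of origin. Genes were colony-PCR amplified, MiSeq 2 × 250 sequenced and filtered by CDR length.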
row,Sequence,polyreactivity (PSR sort gate)
1,QVQLEESGGGLVQAGGRLRISCAASGRTFLCYAMGWSRQAPGKERELLAAISKSGGSTYYADSVKGRFTISRDNAKNTVYLQMNSLKPQDTAVYYCAVEVDVYTFSEFYYWGQGTQVTVSS,high polyreactivity
2,QVQLVESAAGLVQAGVSLRLSCAASGFTLFYYAMGWYRQEPGKERELVAGISRRGGSTYYADSVKGRFTISRDNEKNTVYLQMNSLKPEDTAVYYCAAGLCGYKSDTRGDYWGQGTQVTVSS,low polyreactivity
3,QVQLVESGGGLVQAGGSLRLSCAASGRTFPNNAMGWYRQAPGKERELVAVITWSGGSTYYADSVKGRFTISRDNAKNTVYLQMNSLKPEDTAVYYCATDYTGKWKDHYYYWGQGTQVTVSS,low polyreactivity
4,QVQLEESGGGLVQAGGSLRLSCAASGSTLGYNVMGWYRQAPGKERELVAAISGDGSTNYADSVKGRFTISRDNAKNTVYLQMNSLKPEDTAVYYCAADTYGGSRDYWGQGTQVTVSS,low polyreactivity
5,QVKLVESGGGLVQAGGSLSLSCAASARIFSAYAMGWYRQAPGKEMELVAAISYSGGSTYYADSVKGRFTIARDNAKNTVYLQMNSLKPEDTADYYCAADTVYGYQWGQGTQVTVSS,low polyreactivity
6,QVQLVESGGGLVQAGGSLRLSCAASGSTFWDYAMGWYRQAPGKERELVAAINSGDSTNYADSVKGRFTISRDNAKNTVYFQMNSLKPEDTAVYYCNVDWYDKGYGGYDYWGQGTQVTVSS,low polyreactivity
7,QVQLVESGGGLVQAGGSLRLSCAASGRTFRGYAMGWYRQAPGKERELVAAITSGGSTNYADSVKGRFTISRDNAKNTVYLQMNSLKPEDTAVYYCAAGRSTGQYRYYYWGQGTQVTVSS,high polyreactivity
8,LVQHVQSGGGLVQAGGSLRVSCAASGPTLDSNAMGWYRQAPGKERELVAAISSAGSTNYPDSVKGRFTISRDNAKNTVYLQMNSLKPEDTAVYYSAADLIGSHDYWGQGTQVTVSS,low polyreactivity
9,QVQLVESGGGLVHAGGSLRLSCAASGSTFYYYAMGWYRQAPGKERELVAAIRGDSTYYADSVKGRFTISRDNAKYTVYLQMYSLKTEDTAFYYCAADWYDTGFWWTYPYDYWGQGTQVTVSS,low polyreactivity
10,QVQLVESGGGLVQAGGSLRLSCAASGSIFTEYAMGWYRQAPGKERELVADINSGDITYYADSVKGRFTISRDNAKNTVYLQMNSLKPEDTAVYYCATGWYYTSSTYRSSDFDYWGQGTQVTVSS,low polyreactivity
11,QVQLVESGGGLVQAGGSLRLSCAASGFTSYLYTMGWYRQAPGKERELVAAISNSGGNTYYADSVKGRFTISRDNAKNTVYLQMNSLKPEDTAVYYCAARLFAAKYRYGYWGQGTQVTVSS,high polyreactivity
12,QVQLVESGGGLVQAGGSLRLSCAASGRTFYQYAMGWYRQAPGKERELVAAISRSGTSTYYADSVKGRFTISRDNAKITVYLQMNSLKPEDTAVYYCATSTGRGYSWGQGTQVTVSS,high polyreactivity
13,QVQLVESGGGLVQAGGSLRLSCAASGRIFPSYAMGWYRQAPGKERELDATISSGGRTYYADSVKGRFTISRDNAKNTVYLQMNILKPEYTAVYYCNADRTQDRNPYTYATFDYWGQGTQVTVSS,low polyreactivity
14,QVQLVESGGGLVQAGGSLRLSCAASGSTFYYNAMGWYRQAPGKERELVAAITFTGGSTYADSVKGRFTISRDNAKNTVYLQMNSLKPEDTAVFYCAATIQGHDYLGTGYDYWGQGTQVTVSS,low polyreactivity
15,QVQLVESGGGLVQAGGSLRLSCAASGFTFVPYAMGWYRQAPGKERELVAAISGSGGSTYYADSVKGRFTISRDNAKNTVYLQMNSLKPEDTAVYYCNADRRWAYYWGQGTQVTVSS,high polyreactivity
16,QVQLVESGGGLVQAGGSLRLSCAASGRTFQIYAMGWYRQAPGKERELVAAISRRGGSTYYADSVKGRFTISRDNAKNTVYLQMNSLKPEDTAVYYCNVVHWRGEYSYAGYDYWGQGTQVTVSS,high polyreactivity
17,QVQLVESAAGLVQAGGSLRLSCAASGRIFGYYTMGWYRQAPGKERELVAAINGRGTSTYYADSVKGRFTISRDNAKYTVYLQMNSLKPEDTAVYYCAAQLYYYGQYKHFDYWGQGTQVTVSS,high polyreactivity
18,QVQLVESGGGLVQAGGSLRLSCAASGGIFPAYAMGWYRQAPGKERELVASISANGGRTYYADSVKGRFTISRDNAKNTVYLQMNSLKPEDTAVYYCNASSRSGSWRFYYWGQGTQVTVSS,high polyreactivity
19,QVQLVESGGGLVQAGGSLRLSCAASGYIFYYYAMGWYRQAPGKERELVAAISSGGSTSYADSVKGRFTISRDNAKNTVYLQMNSLKPEDTAVYYCAAYKPWYVGLYPWYDYWGQGTQVTVSS,low polyreactivity
20,QVQVVESGGGLVQAGGSLRLSCAAYGRTISAYAMGWYRQAPVKERELVARITRYGGPTYYADSVKGRFTISRDYAKYTDYLQMNSLKAEVTAVDYCAARKYHLRTAYVYWGQGTEVTVSS,low polyreactivity
21,QVQLVESGGGLVQAGGSLRLSCAASGRTFYAYAMGWYRQAPGKERELVAAINTSGGRTYYADSVKGRFTISRDNAKNTVYLLMNSLKPEDTAVYYCAADVFTFYPRRYDYWGQGTQVTVSS,low polyreactivity

row,Sequence,polyreactivity (PSR sort gate)
1,QVQLVESGGGLVQAGGSLRLSCAASGRIFDYYAMGWYRQAPGKERELVAAIDWRGDRTYYADSVKGRFTISRDNAKNTVYLQMNSLKPEDTAVYYCNVLDTRQVGGYRFDYWGQGTQVTVSS,low polyreactivity
2,QVQLVESGAGLVQEGGSLRLSCAASGRIFQTYTMGWYRQAPGKERELVAAISASGGRTYYADSVKGRFTISRDNAKNTVYLQMNSLKPEDTAVYYCAADIRGYDYWGQGTQVTVSS,high polyreactivity
3,QVQLVESGGGLVQAGGSLRLSCAASGSIFFIYAMGLYRQAPGKERELVAGITSRGITNYADSVKGRFTISRDNAKNTVYLQMNSLKPEDTAVYYCAAGDENYTDRYDYWGQGTQVTVSS,low polyreactivity
4,QVQLVESGGGLVQAGGSLRLSCAASGSTFGHNVMGWYRQAPGKERELVAVISWRGGSTSYADSVKGRFTISRDNAKNTVYLQMNSLKPEDTAVYYCAKPALRYSSRYDSWGQGTQVTVSS,high polyreactivity
5,QVQHVESGGGLVQAGGSLRLSCAASVITFYGYTMGWYRQAPGKERELVARIRSRSTSTYYADSVKGRFTISRDNAKNTVDLQMNSLKPEDTAVYYCNADYTNPGSYRKYDYWGQGTQVTVSS,low polyreactivity
6,QVQLVESGGGLVQAGGSLRLSCAASGITFSGNTMGWYRQAPGKERELVAAISSGGSTYYADSVKGRFTISRDNAKNTVLLQMNSLKPEDTAVYYCNADIYYAPYDYWGQGTQVTVSS,low polyreactivity
7,QVQLVESGGGLVQAGGSLRLSCAASGSIFVWYDMGWYRQAPGKERELVATFSLSGVSTYYADSVKGRFTISRDNAKNTVYLQMNSLKPEDSAVYYCAADFVEQGEDDYWGQGTQVTVSS,low polyreactivity
8,QVQLVESGGGLVQAAGSLRLSSAASGSIFDANANGWYRQPPGKERELVAAITSGGSTYYADSVKGRFTISRVNAKNTVYLQMNSLKPEDTAVYYCAAQYYDYKTTYDYWGKGTQVTVSS,high polyreactivity
9,QVNLVESGGGLVQAGGSLRLSCAASGIIFIAYAMRWYRQAPGKERELVADISIGGSTNYADSVKGRFTISRDNAKNTVYLEMNSLKPEDTAVYYCNAGGGFYGSTVEHDYWGKGTQVTVSS,low polyreactivity
10,QVQLVESGGGIVQAGGSLRLSCAASGRTFAVYAMGWYRQAPGKERELVAAINSSGRTDYADSVKGRFTISRDNAKNTVYLQMNSLKPEDTAVYYCNADFYFRRYRYRYNYWGQGTQVTVSS,high polyreactivity
11,QVQLVESGGGLVQAGGSLRLSCAASGSNFYGYTMGWYRQAPGKERELVAAISWSGGSTYYADSVKGRFTISRDNAKNTVYLQMNSLKPEDTAVYYCAARWGYSRRGYRGYDYWGQGTQVTVSS,high polyreactivity
12,QVQLVESGGGLVQAGGSLRVSCAASGSTLVFNAMGWYRQAPGKEREIVAAISKSGGSRYYADSVKGRFTISRDNAKNTVYLQMNSLKPEDTAVYYCAPDSGGPGYAMDYWGQGTQVTVSS,high polyreactivity
13,QVQLVESGGGLVQAGGSLRLSSAASGRIFARYAMGWYIQAPGKERELVAAITVSGDNTYYADSVKGRFTISRDNAKNTVYLQMNSRKPEDSADYYCDVRAVLLFGFFEYDYWGHGTQVTVSS,low polyreactivity
14,QVQLVESGGGLVQAGGSLRLSCAASGRIFWYYGMGWYRQAPGKERELVAAIRGGGSTYYADSVKGRFTISRDNAKNTVYLQMNSLKPEETAVYYCAVDWSRFYNRGGDYWGQGTQVTVSS,high polyreactivity
15,QVQLVESGGGLVQAGGSLRLSCAASGFTFGRNAMGWYRQAPGKEREFVAAISKSGTSTYYADSVKGRFTISRDNAKNTVYLQMNSLKPEDTAVYYCARTIYAKRWDFDYWGQGTQVTVSS,low polyreactivity
16,QVQLVESVGGLVQAGGSLRLSCAASGFTFWIYAMGWYRQAPGKERELVAVISRGGSTYYADSVKGRFTISRDNAKNTVYLQMNSLKPEDTAVYYCAAYWRSRNRFYWGQGTQVTVSS,high polyreactivity
17,QVQLEESGGRLVQAGGSLRLSCAASGFIFGWNAMGWYRQAPGKERELVASIRSSGGTTYADSVKGRFTISRDNAKNTVYLEMNSLKPEDTAVYYCSKRDRYKRYDFWGLGTQVTVSS,low polyreactivity
18,QVQLVESGGGLVQAGGSLRLSCAASGSNFHPNGMGRYRQAPRTERELVAAIRRSGGSTYYADSVKGRFTISRDNAKNTVYLQMISLKAEDTAVYYCAAKHYYYSRYVRYDPPPGYYWGQGTQVTVSS,high polyreactivity
19,QVQLLESGGGLVQAGVSHRLSCASSGFIFTYYAMGWYRQAPGKESELVASISTYGGNTNYADSVKGRFTISRDNAKNTVYIQMNSLIPEDTAVYYCAARIGNQYHTGYPTAGRKYGYWGQGTQVSVSS,high polyreactivity
20,QVQLQESGGGLVQAGGSQRLSCSASGYIFYFQYMGWYRQAPGKEREFVAAISDGANTNYADSVKGRFNISRDNAKNTEYLQMNSLKPEDTAVYYCAARSFFKMYYWGQGTQVTVSS,low polyreactivity
